Experimental findings from publication PMC9883682, “Fatty acids negatively regulate platelet function through formation of noncanonical 15‐lipoxygenase‐derived eicosanoids” (Pharmacology Research & Perspectives, 2023) are described below.

What all share (assay type): biochemical
One series concerns the target T1, 12‐LOX (Homo sapiens, UniProt P18054).
T1 construct: gene ALOX12
T1 sequence (P18054 1-663): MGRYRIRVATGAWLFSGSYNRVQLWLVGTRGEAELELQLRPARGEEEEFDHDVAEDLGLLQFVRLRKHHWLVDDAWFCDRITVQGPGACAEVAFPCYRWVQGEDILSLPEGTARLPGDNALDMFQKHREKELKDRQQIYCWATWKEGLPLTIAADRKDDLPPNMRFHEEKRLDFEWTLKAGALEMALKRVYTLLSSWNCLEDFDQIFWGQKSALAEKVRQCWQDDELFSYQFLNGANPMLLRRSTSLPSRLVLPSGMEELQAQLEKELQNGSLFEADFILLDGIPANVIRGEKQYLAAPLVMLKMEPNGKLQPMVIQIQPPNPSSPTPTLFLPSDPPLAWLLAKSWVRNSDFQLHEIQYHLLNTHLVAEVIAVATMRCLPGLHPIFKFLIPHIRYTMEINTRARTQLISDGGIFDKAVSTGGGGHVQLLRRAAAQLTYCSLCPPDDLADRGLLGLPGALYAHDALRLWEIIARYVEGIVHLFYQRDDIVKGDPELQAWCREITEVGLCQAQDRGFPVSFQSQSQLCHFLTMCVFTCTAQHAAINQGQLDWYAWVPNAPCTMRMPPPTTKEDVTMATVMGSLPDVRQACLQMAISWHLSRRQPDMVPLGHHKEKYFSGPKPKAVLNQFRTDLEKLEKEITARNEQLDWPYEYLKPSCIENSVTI
As to the kind of experiment: inhibition of purified recombinant 12-LOX with […] AA as substrate.

Substrate in series [1]: CC/C=C\C/C=C\C/C=C\C/C=C\C/C=C\CCCC(=O)O
As to the kind of experiment: steady-state UV kinetics with purified human 12-LOX (kM).

Substrate in series [2]: CCCCC/C=C\C/C=C\C/C=C\C/C=C\CCCC(=O)O
The series is described as above.

Substrate in series [3]: CCCCC/C=C\C/C=C\C/C=C\CCCCCCC(=O)O
The description is as above.

Substrate in series [4]: CCCCC[C@@H](/C=C/C=C\C/C=C\C/C=C\CCCC(=O)O)OO
Kind of series: steady-state UV kinetics with purified human 12-LOX (kM); LC-MS product profile.

Substrate in series [5]: CCCCC[C@@H](/C=C/C=C\C/C=C\CCCCCCC(=O)O)OO
The description is as above.

Substrate in series [6]: CC/C=C\C[C@@H](/C=C/C=C\C/C=C\C/C=C\CCCC(=O)O)OO
The series is described as above. To be noted: also described as a […]‐LOX allosteric regulator that affects secondary product formation.

`CCCCC[C@H](O)/C=C/C=C\C/C=C\C/C=C\CCCC(=O)O` [15‐HETE]: the IC50 at 12‐LOX amounted to 46 ± 19 µM.

For the molecule `CC/C=C\C[C@H](O)/C=C/C=C\C/C=C\C/C=C\CCCC(=O)O` [15‐HEPE], on 12‐LOX, the IC50 was 142 ± 11 µM.

As for `CCCCC[C@H](O)/C=C/C=C\C/C=C\CCCCCCC(=O)O` [15‐HETrE], at 12‐LOX, the IC50 is 105 ± 55 µM.

B1: 12‐LOX (Homo sapiens) (protein)
chain: T1 sequence (P18054 1-663)
As to B1, the Km is 1 ± 0.2 µM in series [1]; 0.49 ± 0.07 µM in series [2]; 2.5 ± 0.2 µM in series [3]; 5.8 ± 0.4 µM in series [4]; 11 ± 1 µM in series [5]; 9.2 ± 1 µM in series [6]. The kcat in series [1] was determined as 9 ± 0.5 s⁻¹; in series [2], 11 ± 0.2 s⁻¹; in series [3], 12 ± 0.3 s⁻¹; in series [4], 1.5 ± 0.05 s⁻¹; in series [5] it was 0.96 ± 0.05 s⁻¹; in series [6] it was 0.93 ± 0.06 s⁻¹. Further, the kcat/Km in series [1] was found to be 8.7e+06 ± 1.2e+06 M⁻¹ s⁻¹; in series [2], 2.2e+07 ± 3e+06 M⁻¹ s⁻¹; in series [3] it was 4.9e+06 ± 300000 M⁻¹ s⁻¹; in series [4] it was 260000 ± 1000 M⁻¹ s⁻¹; in series [5], 86000 ± 4000 M⁻¹ s⁻¹; in series [6], 100000 ± 8000 M⁻¹ s⁻¹.

What is called IC50 is the concentration that inhibits the measured activity by half. As a reminder, the Km is the concentration of substrate that gives half-maximal velocity. One may read the kcat as the maximal rate divided by the concentration of active sites. One may read the kcat/Km as the second-order rate constant that governs catalysis at low substrate concentration.
